Key:
[1] = biological target: C7-VP64 three-finger activator (artificial) (UniProt P08046); assay: cell_activity; details: tobacco protoplasts, Reporter II pc7rbTATA; Reporter I 10 fold
[2] = tested on: SID-2C7 six-finger repressor (artificial); assay: cell_activity; details: tobacco protoplasts; almost 2 fold in maize
[3] = tested on: 2C7 six-finger zinc finger protein (artificial); details: CITED earlier work; cited from earlier work
[4] = tested on: e2c six-finger zinc finger protein (artificial); details: CITED Beerli et al. 1998; cited from earlier work

Substance: GCGTGGGCGGCGTGGGCG (double strand) [2C7 binding site (six tandem repeats in reporters)]
- activity (fold activation) [1]: 100
- activity (fold repression) [2]: 5
- Kd [3]: 0.46 nM

Substance: e2c target site
- Kd [4]: 0.5 nM

Reference: US20030037355
